Measurements taken from the DeepSol protein solubility set.

Test: soluble on expression in E. coli; label from the status in PepcDB or PDB records

| Sequence | soluble on expression in E. coli |
| --- | --- |
| MDEQEFRKQLTLKPVEEEHIDQFNELLSYVFQVTEADIEESGFENKRAFIKSKQPILELSKVFGWFHENQLISQIAIYPCEVNIHGALYKMGGVTGVGTYPEYANHGLMKDLIQTALEEMRQDKQWISYLFPYNIPYYRRKGWEIMSDKLSFKIRDTQLPKTVPVPGMIERLAVDHPDVFDVYARFARQNHGALIRSAFNWEEYWRFENEEERTAAVYYGANQEPLGVLFYWVADEVFHIKEMFYLNQEARNGLWNFITAHFSMVYWVKGDIYKNEPLAFLLEDSQIKESIEPYYMARIVDVKAFLENFPFESTAKPFHFVVKDPVAEWNNGIFGLIWDENDQVTITDEPLGTAVHLDIQTLTCLVMNYRRPSYLHRIERIDTDKETLNSLERIFPDQEAYFSDYF | soluble |
| MDFDRIAMRTTDPAWQKGSAPATPSPVEADAKVTMRLRYTKTGAMRYLSHLEMIGLFTRAVGRARLPIRFSQGFHPHPKFSFATALSVGVESWAEYLDMELIPSLTPGEVRDRLNAALPEGMRIVEAVVIPPGTPSLSVLMDKVRYRIILLEEAARDLAARAEAFLARDSFPLRRAKKGRIQEYDLEHHHHHH | not soluble |
| MDFLKQPCAPLDFDLSREQIEGMLRSARFIKGSFSTRVVGHLPIDNSFRQVSVAIENETSSSIEIMTLERGDTFCGIPLKQRKIPFQNSLKSADIDFTYDDSGIDLTNAPVSFFIEGGRVASICWHHKHRN | not soluble |
| MDGEEKTYGGCEGPDAMYVKLISSDGHEFIVKREHALTSGTIKAMLSGPGQFAENETNEVNFREIPSHVLSKVCMYFTYKVRYTNSSTEIPEFPIAPEIALELLMAANFLDC | soluble |
| MDHALFTHFVGRPRHCRLEMLILDEQVSKRSWDTTVYHRRRKHLPRRRAPCGPQRPAEIPKRRKKAAVLLFWHDLCWLFRRLFFPREDSEPLMSDPARSPEEEELEHHHHHH | not soluble |
| MDILFRIRGGFDLAFQLAPPKEMFIKNALRQVLSDLTTKLSSDALVLRVCNSSVYLWPNSDANTGELTDSSACKNVVRFIQFDQEEDTKRKFIKKKDKKLTDTQQIVNIDLMLEISTPLGAVTPILERENEEHHYINMSLPIDAVVSVAPEESWGKVRKLLVDAILRQLVDVEKCILRYMKGTSIVVPEPLHFQLPGKKNLVTVLYPSGIPDDQLQAYRKELHDLFNLPHDRPYFKRINAYHFPDELYKDGYIRNPHTYLSPPNIEGSMICVVQGTYAYHHYMQDRIDDNGWGCAYRSLQTICSWFRHQGYTERSIPTHREIQQALVDAGDKPATFVGSRQWIGSIEVQMVLNQLIGVTSKILFVNQGSEMASQGRELANHFQNVGTPVMVGGGVLAHTILGVAWNETTGQIKFLILDPHYTGAEDLQVMLEKGWCGWKSPDFWNKDAYYNLCLPQRPNAL | soluble |
| MDILLVDGYNMIGAWPQLKDLKANSFEEARDVLIQKMAEYQSYTGNRVIVVFDAHLVKGLEKKQTNHRVEVIFTKENETADERIEKLAQALNNIATQIHVATSDYTEQWAIFGQGALRKSARELLREVETIERRIERRVRKITSEKPAGKIALSEEVLKTFEKWRRGDLDLEHHHHHH | not soluble |
| MDILSDIANAVLPQDVVSKVESKRAVAVLRGTAVFGTVWLTQKAEGEETEFEGEIKGLSPGLHGFHIHQYGDSTDGCTSAGPHFNPCKMNHGGRDSVVRHVGDLGNVEAGADGVAKIKFSDKVVSLFGANTVIGRSMVVHVDRDDLGQGIDDKAEESLKTGNAGARAACGVIALAAPA | not soluble |
| MDIPVFTMVGEWKCKEGEWKFEPKEGIFGRCVRVQETMTYTDFVRTLREAFSLKSTEINPIISYWMLGEMSVLIDTKHPPVYIDSQMGLETFFFGSWWVSFSQLVRLFQ | not soluble |
| MDIQTRKSILWDAFEELKTRWGADEKFLERVEEEELTVDGLPESKVRDLIELREKYQLDELEFLFIVGTAVGLYQGQKQVKEILQRRMSALNEFVSSLVGREL | not soluble |
| MDITNIKEMNYEEVFSITITVDKPILIGQDDIVGRRQLIPIISGKVSGNNFNGKVLPGGIDSQIVRPDGKCELSARYAIRLDDGAAIYIENNGIRTVPDEYIEAVKSGEFVDPNAYYFRTIPTFETYSPKYKWMMNHIFVCCASRLPENVLLKFYKIS | soluble |
| MDIVLVGCKGFGKEHLRIYSKLGYDVSIVERDSNEAKRCSELFRVYKVYDNYEDALRSGSNIVDLVVPDGLHYEMGSLALKSKKHLLVEKPITPDIDSGISLIQQAEESKLKLMVAEQFYFDPSVNEAIRRINNGEIGKPHTVIVRHQSFRELKGWRNEKSMMGRGILIDEGTHYIDTLLNFGGRYRSLRSFVHRTWDFLGEDTAEAVFNFENGMHGLFFYSWNYPEYPLLPEFEIIGDAGSIYEDIGTKPTEPWDQRKRKTAYGDIIVNGKHIPVEPYDVIEREISGFLNAVEKDEPVPMPPDLALRDIITIDRIYKASSD | not soluble |
| MDKKVTDSTQRGYYIVYLFSEDMCRLYLTLTQRVTETPRDEMERVKQDIRQQIPVGGRVQTDNAIRLSASKRAKEYERSVAVYIAYSFDNLPSDEQLVSDLKTMIGYYRQYVERTEKMTPFKQSLSDRSVVEHIHFYITAKGFYYTQEEVMNLFLSLKTKPFVILSGISGTGKTKIAQWLAESVGATEDNGQFILIPVCPDWNDGSDLLGYVDIKGDFKPGPLTNVITEAENHPDKPYFVVLDEMNLARVEHYFSDVLSVMGSRRWENGRITLSRLLPKETAGRDLFLPPNVYIIGTVNMDETTHPFSKKVLDRANTIEFNRIRLDHLDFLRDLPTVAPLSGGQEWFAARLEHHHHHH | not soluble |
| MDKQSLHETAKRLALELPFVELCWPFGPEFDVFKIGGKIFMLSSELRGVPFINLKSDPQKSLLNQQIYPSIKPGYHMNKKHWISVYSGEEISEALLRDLINDSWNLVVDGLAKRDQKRVRPG | not soluble |
| MDKSNGLRVILFPLPLQGCINPMIQLAKILHSRGFSITVIHTRFNAPKASNHPLFTFLQIPDGLSETETRTHDITLLLTLLNRSCESPFRECLTKLLQSADSETGEEKQRISCLIDDSGWIFTQPVAQSFNLPRLVLNTYKVSFFRDHFVLPQLRREMYLPLQDSEQGDDPVEEFPPLRKKDLLQILDQESEQLDSYSNMILETTKASSGLIFVSTCEELDQDSLSQAREDYQVPIFTIGPSHSYFPGSSSSLFTVDETCIPWLDKQEDKSVIYVSFGSISTIGEAEFMEIAWALRNSDQPFLWVVRGGSVVHGAEWIEQLHEKGKIVNWAPQQEVLKHQAIGGFLTHNGWNSTVESVFEGVPMICMPFVWDQLLNARFVSDVWMVGLHLEGRIERNVIEGMIRRLFSETEGKAIRERMEILKENVGRSVKPKGSAYRSLQHLIDYITYF | soluble |
| MDKSSDAFRTISEVAELLELPQHVLRFWETRFKQIKPMKRGGGRRYYRPVDIDLLNGIKQLLYDQGYTIKGVQRLLKENGVAFVTAFGNGDLDAMNVVIEKKHGEQTSEVTSSKPKKSSFGLLSFMRNEVETSIGSVNVYKDKTDKALLQEILFELIECKRVLDRAR | not soluble |
| MDKYHSMKELQNETIENEDWEIITEDRDSNVTILAIHGGGIEPATTELARVIANDGQFNYFAFNGMRTKGNNELHVTSINYDNDIAMDLVKTSESAITIHGCLGEDEIAYIGGKDNLLKERIVEELSQIGIEVKEAPSHMSGTQDNNIVNCTKNGVGVQIELTSSLRKSLFKNNKFNRKSRMDESNWDDKMYDFGQAINSAINLEHHHHHH | soluble |
| MDLAAHIDHTLLKPTATLEEVAKAAEEALEYGFYGLCIPPSYVAWVRARYPHAPFRLVTVVGFPLGYQEKEVKALEAALACARGADEVDMVLHLGRAKAGDLDYLEAEVRAVREAVPQAVLKVILETGYFSPEEIARLAEAAIRGGADFLKTSTGFGPRGASLEDVALLVRVAQGRAQVKAAGGIRDRETALRMLKAGASRLGTSSGVALVAGEGGTLGY | soluble |
| MDLDQLDLNPRITAAVKRGRLKSVKEILCYSGPDLQRLTGLPSHDVQCLLRAASLHLRGSRVLSALHLFQQKESFPEQHQRLSLGCPVLDQFLGGGLPLEGITGLAGCSSAGKTQLALQLCLAVQFPRQYGGLEAGAVYICTEDAFPSKRLWQLIAQQRRLRTDAPEELIEKIRFSNHIFIEHAADVPHFVVSSTFRPQPSGRSSCSRWGPHCED | soluble |
| MDLFDTPLAPLQVLDDAEGGVRYWPQLLAPAVAQAAFAALRDGADWQRHQRTMYDRVVDVPRLLASYRLDAPLPPGLPLQLLLAAVQAQLPAPYNAVGLNLYRDGRDSVAMHHDKLHTLLAPHPIALLSLGTPRRMQLRAKQGATRAITLELAPGSLLAMSHASQLTHEHGIPKTTRALGERISVVFRVRPPARMAAGQHGPHWEALTQTDLEHHHHHH | soluble |
| MDLFSQFFQENQKKFLSFAYSYTRNKAAAEDILMEAMVSLWENREKWEKDSNLHALLLTIIKNKSLNYLEHEQVRMKAEEAINTHKQRELDLRISTLEACEPATIFDTEIQRIVYKTLEQLPEQSRHIFILSRYHNTPNKKIAEQLGISIKSVEFHITKTLKLLRLELKDYLISLLF | not soluble |
| MDLISGEADPSESRAAERPGTAPLQGLVTFNRLELNRILNLYGRMVAAGEWRDYAIDFLKDTAVFSIFRRASEVPIYRIVKDPRLARKQGAYSVIGASGQILRRGHELERVLLVIDRKLALV | not soluble |
| MDLTASLEDDQREKLRQYTEFTHQQDYEVAIGTLASLNWNLEQAIEAHLMQEDKNDDEDPEILETIPAAASGRNAGASSSSRFEPEVINIEDDEMPATRGRRRGRAVTPDETTTVDNQVKRLRIDDGSSSSSNGAATHHRGAAIPRQKRGQATEPTPSSSGSSSASFSSRRGTRANPVPPPNQEPAHPESARQNGGILASRHNNHNNQQNNHHHHHQRIPINPRRVDVFNVDSDEDDDSMAIAYEDDDDGVHEVHHSEVCEKDRAISAFLAPKLGNEVVARGSGPPNGRIPMIPDGFSSVSDALRNFVAIFSDRFCSTPQTQAFMPPFYTEPLPAAVKEAFDHPNSEHRRPLLFYINHDRSIAANIFASQVLCSETVSTLIRHQYVLFPWDITSDSNLMLFLEYLQAANMGDVRTIIQRLAMSKIESFPLMAIVVKERNSYRLVDYCRGTDTSDQVMEKLLSGVSEYSDIRMNEQSERREREEREAIRNQQEAEYKASLAADKARMEAKQQEIEEQRLEEERKLREEEEECVRRQTVASTVPEEPPASAPLAEIINVKFRLPEGGQDMRRFRRLESIQTLINYLSSKGYSPDKFKYFNSDFPKKEITRHFDLSHNFADTKWPAREQIFVEEI | not soluble |
| MDLTELFAFLSIPSVSTDPARREDVRRAALWLEERLKARGFRTELHETPLHPILYAERFVDEKAPTVLVYGHYDVQPPDPLELWESPPFSPVVREGRIYARGAFDDKGQLFAHVLAAEEAPVNLKFLVEGEEEIGSPHLPPFVRANREKLRADVVLVSDGAMFAPHTPTLTYGLRGLCYLEVRLRGARRDLHSGAFGGVAPNPIQALGWLLARLKDEGTGRVLIPGFYERVRPVPEEEKALWPSLDEEALKRELGVEILPGEEGYAPLERLWARPTLDPNGIWGGYQGEGSKTVIPAEAGMKLSMRLVPDQDPEEVADQAEAYLKAVCPPGYALEVRRLHGGRPVLTDPFSPPMRLMARALEEVWGRPPVYTREGGTIPVVAELKETLGAPIVLLGLGLPDDNLHAPNEKLDLVNLEKGVEVIRRFHRLLAG | soluble |
